Data published in patent publication US20130129739A1 (Bayer, published 2013).
Changes are numbered by the printed parent chain. Each block holds one binder with its values, some of them ahead of it.

Molecular target: T1, extracellular domain of human PRLR (monomeric, soluble) (human, UniProt P16471 25-234)
T1 construct: also called ECD-PRLR; ECD of PRLR
T1 sequence: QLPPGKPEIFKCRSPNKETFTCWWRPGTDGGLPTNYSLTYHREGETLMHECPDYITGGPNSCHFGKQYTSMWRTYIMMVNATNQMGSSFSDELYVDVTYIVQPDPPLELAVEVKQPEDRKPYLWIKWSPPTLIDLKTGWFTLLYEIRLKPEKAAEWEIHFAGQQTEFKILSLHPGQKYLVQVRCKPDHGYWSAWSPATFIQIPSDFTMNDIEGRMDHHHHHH
Assay: ELISA: plate coated with human PRLR extracellular domain, Fab-containing E. coli supernatant, anti-flag-HRP, Amplex Red
Protocol: 96 well microtiter plates were coated with 1 μg per milliliter of human PRLR. Plates were incubated over night at 4° C. After blocking with PBS buffer containing 3% bovine serum albumin, normalized E. coli-derived supernatants containing the Fab variants were added. Detection of formed complexes occurred via the addition of an anti-flag antibody (Sigma, A8592) labeled with horseradish peroxidase.

- binding result: binds
B23: 005-C04-37-7 (Fab, V domains shown)
VH: EVQLLESGGGLVQPGGSLRLSCAASGFTFSSYWWHWVRQAPGKGLEWVSDISSLSSYTGYADSVKGRFTISRDNSKNTLYLQMNSLRAEDTAVYYCARGLDARRMDYWGQGTLVTVTS
VL: QSVLTQPPSASGTPGQRVTISCTGSSSNIGYGYVVHWYQQLPGTAPKLLIYRNNWRPSGVPDRFSGSKSGTSASLAISGLRSEDEADYYCAAWDDSLNGWLFGGGTKLTVLG
notes: Maturated 005-C04 variant; Fab in E. coli supernatant, flag-detected

- binding result: binds
B24: 005-C04-21-2 (Fab, V domains shown)
VH: B23 VH with W34N, I51M, S52A, S53R, L54A, S56P, G59N
VL: B23 VL with W55V
notes: as for B23

- binding result: binds
B25: 005-C04-29-17-7 (Fab, V domains shown)
VH: B23 VH with W34M, L54A, G59N
VL: B23 VL with Y31A, W55Q, N98L
notes: as for B23

- binding result: binds
B26: 005-C04-2-2 (Fab, V domains shown)
VH: B23 VH with W34N, I51M, S52A, S53R, S56P, G59N
VL: B23 VL with W55V, P57Q
notes: as for B23

- binding result: binds
B27: 005-C04-29-17-3 (Fab, V domains shown)
VH: B23 VH with W34M, L54A, G59N
VL: B23 VL with Y31A, W55Q, N98F
notes: as for B23

- binding result: binds
B28: 005-C04-37-2 (Fab, V domains shown)
VH: B23 VH
VL: B23 VL
notes: as for B23

- binding result: binds
B29: 005-C04-52-29-7 (Fab, V domains shown)
VH: B23 VH with W34M, S53R, L54A, G59N
VL: B23 VL with Y31A, W55Q
notes: as for B23

- binding result: binds
B30: 005-C04-20-2 (Fab, V domains shown)
VH: B23 VH with W34N, S52A, S53R, G59N
VL: B23 VL with W55Q
notes: as for B23

- binding result: binds
B31: 005-C04-18-10-4 (Fab, V domains shown)
VH: B23 VH with W34M, L54A, G59N
VL: B23 VL with Y31A
notes: as for B23

- binding result: binds
B32: 005-C04-L2-1-11-0 (Fab, V domains shown)
VH: B23 VH with I51M, S52A, S53R, G59N
VL: B23 VL with Y31A, W55V, P57Q
notes: as for B23

- binding result: binds
B33: 005-C04-19-2 (Fab, V domains shown)
VH: B23 VH with W34N, I51M, S52A, S53R, S56P, G59N
VL: B23 VL with W55Q, P57Q
notes: as for B23

- binding result: binds
B34: 005-C04-L2-1-4-5 (Fab, V domains shown)
VH: B23 VH with S53R, L54A, G59N
VL: B23 VL
notes: as for B23

- binding result: binds
B35: 005-C04-L2-1-11-3 (Fab, V domains shown)
VH: B23 VH with W34N, I51M, G59N
VL: B23 VL with Y31A, W55V
notes: as for B23

- binding result: binds
B36: 005-C04-55-32-0 (Fab, V domains shown)
VH: B23 VH with W34M, L54A, S56P, G59N
VL: B23 VL with Y31A, W55Q
notes: as for B23

- binding result: binds
B37: 005-C04-53-31-7 (Fab, V domains shown)
VH: B23 VH with W34M, G59N
VL: B23 VL with Y31A, W55Q
notes: as for B23

- binding result: binds
B38: 005-C04-29-17-2 (Fab, V domains shown)
VH: B23 VH with W34M, L54A, G59N
VL: B23 VL with Y31A, W55Q, N98G
notes: as for B23

- binding result: binds
B39: 005-C04-29-0 (Fab, V domains shown)
VH: B23 VH with W34N, I51M, S53R, L54A, G59N
VL: B23 VL with W55Q, P57Q
notes: as for B23

- binding result: binds
B40: 005-C04-52-29-0 (Fab, V domains shown)
VH: B23 VH with W34M, S53W, L54A, G59N
VL: B23 VL with Y31A, W55Q
notes: as for B23

- binding result: binds
B41: 005-C04-21-1 (Fab, V domains shown)
VH: B23 VH with W34N, S52A, S53R, S56P, G59N
VL: B23 VL with W55V, P57Q
notes: as for B23

- binding result: binds
B42: 005-C04-20-12-7 (Fab, V domains shown)
VH: B23 VH with W34M, L54A, G59N
VL: B23 VL with Y31A, W55Q, P57Q
notes: as for B23

- binding result: binds
B43: 005-C04-18-10-2 (Fab, V domains shown)
VH: B23 VH with W34M, L54A, G59N
VL: B23 VL with Y31A, W55V
notes: as for B23

More lines, now with the values behind:

B1: 005-C04-41-2 (Fab, V domains shown)
VH: B23 VH with W34N, S53R, L54A, G59N
VL: B23 VL with W55Q
notes: as for B23
- binding result: binds

B2: 005-C04-36-0 (Fab, V domains shown)
VH: B23 VH with S52A, S53R, L54A, S56P, G59N
VL: B23 VL with W55V
notes: as for B23
- binding result: binds

B3: 005-C04-25-6 (Fab, V domains shown)
VH: B23 VH with I51M, S53R, G59N
VL: B23 VL with W55V, P57Q
notes: as for B23
- binding result: binds

B4: 005-C04-42-1 (Fab, V domains shown)
VH: B23 VH with W34N, S53R, G59N
VL: B23 VL with W55Q, P57Q
notes: as for B23
- binding result: binds

B5: 005-C04-4-3-7 (Fab, V domains shown)
VH: B23 VH with W34M, L54A, G59N
VL: B23 VL with W55Q
notes: as for B23
- binding result: binds

B6: 005-C04-2-7 (Fab, V domains shown)
VH: B23 VH with S53R, L54A, S56P, G59N
VL: B23 VL with S25V, Y31A, W55Q
notes: as for B23
- binding result: binds

B7: 005-C04-29-17-0 (Fab, V domains shown)
VH: B23 VH with W34M, L54A, G59N
VL: B23 VL with Y31A, W55Q, N98S
notes: as for B23
- binding result: binds

B8: 005-C04-40-4 (Fab, V domains shown)
VH: B23 VH with W34N, I51M, S52A, S53R, G59N
VL: B23 VL with W55V, P57Q
notes: as for B23
- binding result: binds

B9: 005-C04-58-33-1 (Fab, V domains shown)
VH: B23 VH with W34M, L54A
VL: B23 VL with Y31A, W55Q
notes: as for B23
- binding result: binds

B10: 005-C04-L2-1-2-3 (Fab, V domains shown)
VH: B23 VH with W34N, I51M, S52A, S53R, L54A, S56P
VL: B23 VL with Y31A
notes: as for B23
- binding result: binds

B11: 005-C04-L2-1-3-2 (Fab, V domains shown)
VH: B23 VH with W34N, I51M, S52A, S53R, G59N
VL: B23 VL with Y31A, W55V, P57Q
notes: as for B23
- binding result: binds

B12: 005-C04-44-25-1 (Fab, V domains shown)
VH: B23 VH with W34N, L54A, G59N
VL: B23 VL with Y31A, W55Q
notes: as for B23
- binding result: binds

B13: 005-C04-L2-1-12-4 (Fab, V domains shown)
VH: B23 VH with W34N, S52A, S53R, G59N
VL: B23 VL with Y31A
notes: as for B23
- binding result: binds

B14: 005-C04-10-3 (Fab, V domains shown)
VH: B23 VH with S52A, S53R, S56P, G59N
VL: B23 VL with W55V, P57Q
notes: as for B23
- binding result: binds

B15: 005-C04-50-28-3 (Fab, V domains shown)
VH: B23 VH with W34M, I51R, L54A, G59N
VL: B23 VL with Y31A, W55Q
notes: as for B23
- binding result: binds

B16: 005-C04-9-2 (Fab, V domains shown)
VH: B23 VH with S52A, S53R, L54A, G59N
VL: B23 VL with P57Q
notes: as for B23
- binding result: binds

B17: 005-C04-45-1 (Fab, V domains shown)
VH: B23 VH with W34N, S53R, L54A, G59N
VL: B23 VL with W55V
notes: as for B23
- binding result: binds

B18: 005-C04-51-29-0 (Fab, V domains shown)
VH: B23 VH with W34M, S52A, L54A, G59N
VL: B23 VL with Y31A, W55Q
notes: as for B23
- binding result: binds

B19: 005-C04-11-5 (Fab, V domains shown)
VH: B23 VH with S53R, S56P, G59N
VL: B23 VL with W55V
notes: as for B23
- binding result: binds

B20: 005-C04-46-1 (Fab, V domains shown)
VH: B23 VH with W34N, I51M, S53R, S56P, G59N
VL: B23 VL with W55V, P57Q
notes: as for B23
- binding result: binds

B21: 005-C04-47-3 (Fab, V domains shown)
VH: B23 VH with S53R, L54A, S56P, G59N
VL: B23 VL with W55Q
notes: as for B23
- binding result: binds

B22: 005-C04-8-6 (Fab, V domains shown)
VH: B23 VH with I51M, S53R, L54A, G59N
VL: B23 VL with S25Q, Y31A, W55Q
notes: as for B23
- binding result: binds
